From publication PMC10876603

Target: microtubules (polymerised α/β-tubulin) (UniProt Q6B856)
Sequence of UniProt Q6B856 (Q6B856 whole entry, looked up): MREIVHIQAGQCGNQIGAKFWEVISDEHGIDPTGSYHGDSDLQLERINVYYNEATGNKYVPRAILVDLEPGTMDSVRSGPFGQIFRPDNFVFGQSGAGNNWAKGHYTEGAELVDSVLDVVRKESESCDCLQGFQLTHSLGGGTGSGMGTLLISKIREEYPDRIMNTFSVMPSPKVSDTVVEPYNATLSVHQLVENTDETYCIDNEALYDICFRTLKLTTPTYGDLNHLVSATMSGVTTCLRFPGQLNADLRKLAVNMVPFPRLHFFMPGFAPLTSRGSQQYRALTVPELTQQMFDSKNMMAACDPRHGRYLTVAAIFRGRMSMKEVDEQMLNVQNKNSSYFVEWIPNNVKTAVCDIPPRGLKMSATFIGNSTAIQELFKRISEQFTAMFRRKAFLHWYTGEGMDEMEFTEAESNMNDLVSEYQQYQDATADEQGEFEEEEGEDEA

Substance “human CEN subcomplex with Borealin R17E, R19E, K20E (CEN-Borealin^MTBM) (from UniProt Q9NQS7 1-58; O15392 1-142; Q53HL2 1-280)” has a width of bundles of GMpCpp-stabilized rhodamine-labeled MTs (100 nM) after 2 min with 4 μM CEN, TIRF microscopy (single GMpCpp MTs measure 0.34 μm) of 0.36 μm.
